Test results reported in patent publication US20230051701A1 (Bristol-Myers Squibb, published 2023).
Values joined by “and” are separate entries in the source; they are usually repeats but may differ in a detail not shown here. Equal values may be shown once.

Experiments:
[1] = target: T1, human CD73 on cells (Calu6, NCI-H292, SK-MEL-24, human tumor cell lines, human B and T cells) (human, UniProt P21589 27-549); assay: flow cytometry, human tumor cell lines
T1 construct: Endogenous protein; also called endogenous CD73; cellular CD73
T1 sequence: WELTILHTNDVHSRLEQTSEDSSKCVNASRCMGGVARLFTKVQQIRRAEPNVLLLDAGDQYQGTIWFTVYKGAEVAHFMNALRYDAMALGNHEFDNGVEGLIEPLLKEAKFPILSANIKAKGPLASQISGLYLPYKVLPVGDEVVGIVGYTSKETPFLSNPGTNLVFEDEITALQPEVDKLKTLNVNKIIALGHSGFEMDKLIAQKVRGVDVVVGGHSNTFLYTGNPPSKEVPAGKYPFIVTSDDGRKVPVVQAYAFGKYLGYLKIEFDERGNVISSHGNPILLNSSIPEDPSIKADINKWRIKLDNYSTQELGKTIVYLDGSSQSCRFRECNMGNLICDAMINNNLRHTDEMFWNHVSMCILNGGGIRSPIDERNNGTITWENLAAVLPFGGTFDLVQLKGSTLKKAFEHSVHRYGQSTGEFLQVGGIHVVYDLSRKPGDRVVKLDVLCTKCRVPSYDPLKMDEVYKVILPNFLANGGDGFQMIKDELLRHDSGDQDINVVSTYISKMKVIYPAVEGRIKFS
Procedure: Titration binding curves were produced with CD73 antibodies on Calu6 (CD73 endogenous expressors; human pulmonary adenocarcinoma cell line), DMS114 (CD73 negative; human small cell lung cancer cell line), CHO-cynoCD73 (cynoCD73-transfected) and CHO-K1 (cynoCD73 negative), cells using Alexa Fluor® 647 Goat Anti-Human IgG (H+L) as a secondary antibody, Invitrogen Cat#A-21445, using the following method: 100000 cells were plated in 100 uL PBS+2% FBS per well and blocked for 20 min. Using a U-bottom 96-deep well plate, volumes of antibody and PBS+2% FBS were combined as dictated by Table 12 below.
An 8-point serial dilution was performed by diluting a sixth of the volume (90 uL) into 450 μL PBS+2% FBS. The cell plate was spun down for 5 minutes at 1500 rpm. 100 uL of diluted antibody was added per well of the plate. 100 uL PBS+2% FBS were added to all other wells. […] The plates were spun down at 1500 rpm for 5 min and washed in 200 uL PBS +2% FBS per well. The plates were washed again, resuspended in 200 uL 2% FBS in PBS per well and the samples were run.

[2] = target: T1, human CD73 on cells (Calu6, NCI-H292, …); assay: cell-based or functional assay
[3] = target: T2, rhCD73 bound to his-tag magnet beads (human, UniProt P21589 27-549, limits assumed); assay: cell-based or functional assay
T2 sequence: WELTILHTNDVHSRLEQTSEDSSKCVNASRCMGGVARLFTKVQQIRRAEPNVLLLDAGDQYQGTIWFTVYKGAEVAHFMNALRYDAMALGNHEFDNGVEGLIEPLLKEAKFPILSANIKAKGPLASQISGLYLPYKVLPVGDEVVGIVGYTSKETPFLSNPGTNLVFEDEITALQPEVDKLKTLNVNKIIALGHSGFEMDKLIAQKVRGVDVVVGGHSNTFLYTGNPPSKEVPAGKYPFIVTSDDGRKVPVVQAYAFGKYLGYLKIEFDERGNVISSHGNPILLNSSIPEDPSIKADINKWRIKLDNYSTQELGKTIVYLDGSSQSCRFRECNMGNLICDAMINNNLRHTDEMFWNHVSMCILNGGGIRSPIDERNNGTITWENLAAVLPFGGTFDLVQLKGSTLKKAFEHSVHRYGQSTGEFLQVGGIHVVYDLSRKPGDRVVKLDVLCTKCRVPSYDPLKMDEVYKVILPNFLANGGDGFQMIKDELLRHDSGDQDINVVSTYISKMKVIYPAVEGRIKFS

B1: CD73.4-IgG2-C219S-IgG1.1f (antibody)
heavy: QVQLVESGGGVVQPGRSLRLSCAASGFTFSNYGMHWVRQAPGKGLEWVAVILYDGSNKYYPDSVKGRFTISRDNSKNTLYLQMNSLRAEDTAVYYCARGGSSWYPDSFDIWGQGTMVTVSSASTKGPSVFPLAPCSRSTSESTAALGCLVKDYFPEPVTVSWNSGALTSGVHTFPAVLQSSGLYSLSSVVTVPSSNFGTQTYTCNVDHKPSNTKVDKTVERKSCVECPPCPAPPVAGPSVFLFPPKPKDTLMISRTPEVTCVVVDVSHEDPEVKFNWYVDGVEVHNAKTKPREEQYNSTYRVVSVLTVLHQDWLNGKEYKCKVSNKALPSSIEKTISKAKGQPREPQVYTLPPSREEMTKNQVSLTCLVKGFYPSDIAVEWESNGQPENNYKTTPPVLDSDGSFFLYSKLTVDKSRWQQGNVFSCSVMHEALHNHYTQKSLSLSPG
light: not shown
modifications: 94% of the N-terminal glutamine was pyro-Q; 97% of the heavy chains lacked the C-terminal lysine
notes: also called CD73.4-IgG2CS-IgG1.1f
- EC50 [1]: 0.5 nM and 0.3 nM to 0.67 nM (2×)
- EC50, blockade of endogenous cellular CD73 in Calu6 [2]: 0.31 to 0.48 nM
- EC50 for blockade of endogenous cellular CD73 in Calu6 [2]: 0.31 to 0.48 nM
- EC50, recombinant human CD73 enzyme inhibition assay [3]: 2.9 to 3.1 nM
